# Test results published in patent US10391150B2, “Treatments for migraine and related disorders” (The University of Chicago, priority 2011, dated 2019).
# “Also recorded” adds a separate entry of the source.
# B1: Interferon-gamma (protein, listed as Homo sapiens)
# chain: MKYTSYILAFQLCIVLGSLGCYCQDPYVKEAENLKKYFNAGHSDVADNGTLFLGILKNWKEESDRKIMQSQIVSFYFKLFKNFKDDQSIQKSVETIKEDMNVKFFNSNKKKRDDFEKLTNYSVTDLNVQRKAIHELIQVMAELSPAAKTGKRKRSQMLFRGRRASQ
# What was measured:
# [1] = test system: myelin basic protein (MBP); test: Myelin basic protein (MBP) Western blot in hippocampal slice cultures; format: cell-based, rat
# Protocol: FIGS. 14A-14C. Reduced myelin basic protein (MBP) from SD depends on IFN-γ/T-cell activation and sphingomylinase. […] Thus, confirming involvement of T cells.
# FIGS. 15A-15C. Physiological and transient elevation [i.e., phasic (see FIG. 1)] of IFN-γ triggers completely opposite effects. Transient (i.e., 500 U/mL×12 hours; all groups n≥5) exposure of hippocampal slice cultures was nutritive when assessed seven days later.
# glutathione = test: Slice culture glutathione by Thiol Tracker; format: cell-based, rat; settings: pulsed exposure to IFN-γ or exosomes from IFN-γ-pulsed slice cultures
# From the text: FIGS. 17A-17B. Detection of an IFN-γ-induced rise in slice culture glutathione using Thiol Tracker™, a fluorescent indicator of glutathione. […] (FIG. 17B) Furthermore, this increase is significant (p<0.001; n≥5/group) and can be mimicked by exposure to exosomes isolated from slice cultures activated by pulsed-exposure to IFN-γ.
# Since stimulated immune cells release exosomes that are capable of reducing OS in recipient cells, the inventors next tested whether IFN-γ stimulated slice cultures (and possibly their microglia) to release exosomes that mimicked the effects of IFN-γ. […] IFN-γ, when pulsed onto slice cultures for 12 hours triggers the release of nutritive exosomes that mimic the effect of pulsed exposure to IFN-γ (16, 17). Since pulsed-exposure to IFN-γ reduces OS and glutathione is a naturally occurring inhibitor of neutral sphingomyelinase, the inventors probed for an IFN-γ-induced rise in slice culture glutathione using Thiol Tracker™, a fluorescent indicator of glutathione (FIG. 17).
molecule,measurement,setting,value
B1,MBP levels,[1]; IFN-γ with co-administration of TNF-α (100 ng/mL),further decline in MBP
same,MBP levels,[1]; chronically applied IFN-γ 500 U/mL × 24 hours,reduce MBP levels
same,MBP versus baseline,"[1]; transient (pulsed) IFN-γ 500 U/mL × 12 hours, assessed seven days later",MBP rises above baseline; also recorded: increased above baseline
same,slice culture / microglial glutathione,glutathione,selectively increases microglial glutathione
